In the DeepSol protein solubility set:

test: soluble on expression in E. coli; label from the status in PepcDB or PDB records

Soluble on expression in E. coli, not soluble:
MGSDKIHHHHHHEYKNVNEIIVEELEIPVPLGDPFILLHNGTYYAYGTHSDEGIEVYISDNLKTWKYKGLALNKKDSWADRWFWAPEVYEVNGKFYMYYSADEHICVAVADSPVGPFIQNKQEPMIVEEKCIDNSFFMDDDGTPYLSFVRFNDGNNVWIAELEKDLITLKKETMRPCIHVSQAWEEVWPRVNEGSYILKHNGIYYMTYSANSYESPFYGVGCATATDIMGEWAKYDENPLLQNPGGLVGVGHSAMFTDKEGKLRIVFHAHKDKSNIHPRAMYIGTVNFENVNGTDRMRISKEYITPKLLQ
MGSDKIHHHHHHFACKEETDLYFNGDITVIKSFDNDTLLSPVKVELEDIYDGSVLAYDSLLFFTSHKYSDCWMYVFSVNSGKHIASLCPKGQGPNDYLSCKNSQQFIRENGELKLWVRDNAKSARLLNITKSIETGATVCDAIIPMDWNKYFVYPATTLFFLKDGYILGQNQCEEQYSKGKEYIPRKFYLYKDSLGNKVKEYKLFNRPVILKDDKYDVLSGMFYANHSYIHPDQTKVAIAMQRVAQITILDVKSGKQVGYRMDDTLDFSDIEQNLECIRYYYTSAAVNSRYIFALYIDQAEMGGKYPFKSKTVHVFNWEGRPVYKIQLDKEISWITLDPQNNRLYAQGEDDSIWAYDVSWLSK
MGSDKIHHHHHHFLDELPDNRTELNSEQKIAKMLVSAYPEGSANELFELYSDNTDDNSARYSYYKLSEEECYNWKDTQEEYQDTPTNLWETHYIAIASANMALEEIEKRGNPESLMPQRGEALVCRAYNHFVLANIFCNAYNTHASQELGIPYMTKVETTVQPQYGRGTLQETYEKIEKDLLDGMALISDDSYSVPKYHFTRKAAYAFAARFYLYYMKPDFSNCDEVIKYADRVLGSDPAAELRDWEALGKLSANDNVQPDAYIASTSKANLLIGSTVSNWGIILSNYMTGKRYLHNKLIASYETSRSSGLWGIPDRMYMQPFTTSGYECSMLRKGGYYAGDYLYYMPVIFSTDETLLCRAEAYTLKKNYPMAAADLTTWEKAYTSNKQTLTPGMINEYYDKMDYYNPTQNPTPKKKLQPDFTIESGIQENFIHCILHMRRIATLHEGLRWPDIKRYGIVIYRRSIANNNIVVTDEMPVNDARRAMQIPKSVVLAGMQPNPRTEN
MGSDKIHHHHHHGCDDNTGGLGLGMFPGNDQNIKGKLSTFDVTTESVKTGDIYAKTNIGYIGKFTDETFGTYQAGFLAQLNCPDGLTFPEPYKEVTDASGNVISATGRMVVDDKDPENKDVTFIKDGNQIIGNIRAVELYLWYDSYFGDSLTACRLSVYELGGNGKETLNLDNAYYTDINPEDFYDSQNILGTKAYTAVDLSVKDSIRNLSTYVPSVHIAFKEDIATRVGGNILTAARKAKNADKEFNSQLFREAFQGIYVKSDYGDGTVLYIDQPQMNVVYKCYATDSITGKKLQKKDGSGKDSTYYSYRVFATTREVIQANQLKNDPERIDALIKEDKNTYLKSPAGIFTEATLPISDIQNELTGDTLNAVKLTFTNYNQTGDKKFGMAIPSTVMLVRKKFQDSFFKDNKLSDGVSSYLTSHTSSTNQYVFSNITKLVNACIAEKEEAKKNAGSSWDETKWLQENPDWNKVVLIPVLVTYDSSNTTTGQANIIRIQHDLKPGYVRLKGGSLGKTNPDYKLKLEVISTDFGLTTKSN
MGSDKIHHHHHHGIDNGTPKSKNEIGVNTIVKKSSRAAVTSNSSFTSFKLHAYIVKSNDIATSGWGNAYMDGIEYKGGQGSWATTSGTFYWPITEMQFFGYTNDVTYTAPASSNAYPTISYTLPDTPADQKDIIVAYSKDVTKPSDNTLNLTFQHILTRINFAVKLVDSSYTYTVESITITGAKGGTATYTFGGTEGKGGNWNITGSAPASGYSYTFDNTVTAKDGIYDYTQNDNSLMLYPQSLTDAKIIVKYKTEKDNATFFNDSKEVSLTGEWTNGQSIRYILTLPVGAEEMSVNTTYDENWDATDNEQTPKNPAS
MGSDKIHHHHHHGKEEEGPIPTDRQVPIGVMEASLSTRVSTRGVINTDIYKLGIFRTNANGYPPQYDAPYSYDGAAGWTATTEILVDHRSASLYAYYPYQSVSFADNTTKAILVAQIYDAAKDMCYGSATSADGSGMINNDHKGVRFIDMKHAYARLKLTFVRGTNVMSGRKCKIENIVLKNNSTNFYLQRQVDITTGTITEGTPAAEGYVHNPNVEIASGNQVYEYLLPPQSLTDNKLTISVTVDGEVRTVTVTAFGGTLNAGGYYHVTLTINDVQIVPSAGVTDNGYTSGDDPKNPIQNNTPSVV
MGSDKIHHHHHHGNDDFPAEEPKVPLEITSAFVTGDVQTRAVTPELLTSGSIGVFLEGRSGTGYDKKDNIQYDYNVGWKPKTETIYLGGEDADVCAYKKTTKLDLSAKEAVPLVSQIYDAEIDLVYATNQTVNGTSAGKSVEFTMGHAYSQIEFVFSREDYPNTCKVTEITVENANIIKTATLNLATGGYTPVTVEKVSYWTNVAKHEDGIAVPESGTVKSNVLMIPCTLANAGGTGVTLELKVDGKLMTVPIAHDKLGALTAGVIHQISLKLKGTALEISVKDTPWDNQPVDGEYNPEP
MGSDKIHHHHHHGNLEEMNIDPDNATQTHPKLLLTQICMNAFKRGTDGMYATKKVIQADGESADQYYKWTRGSFGYYDNLRNVQKMGEEAERVNAPVYTALTKFFRAYYFYELTLRFGDIPYSQALKGEKEEIYTPEYDAQEDVFAGILQELREADEILANDASVIDGDIIYNGNSTQWRKLINSFRLKVLMTLSNHTTVGNINIASEFKNIATNSPLMNSLADNGQLVYLDQQGNRYPQFNAQWSGYYMDDTFIQRMRERRDPRLFIFSAQTNKGKTEGKPIDDFSSYEGGDPAAPYSDAIIKVSEGTISPINDRFRTDPIVEPTMLMGYAELQQILAEAVVRGWISGNAQTYYEKGIRASFSFYETHAKDYAGYLNENAVAQYLKEPLVDFTQASGTEEQIERIIMQKYLVTFYQGNWDSFYEQLRTGYPDFRRPAGTEIPKRWMYPQGEYDNNGTNVETAITRQFGAGNDKINQATWWQKKS
MGSDKIHHHHHHGPASGRVEMKGESDSLSVRHGQENALSVSDEYPEGYVPVPGIRYQANYLTGNPERLDVKAALRNVRPLKLSQLGSQLDFMVFKDVKGGIFRLIPIEEGCLGVGIGGIWLLDGNLKMIRMLFRNDVDITEENGFTNFQTKRYINPDYYEKSSRTLIGVLYDQRDKKNPKSFVRLSLKDLLSASRPLTPDDIHKRAGISGNYLLGMADGYATWTRFTNDVYTFNLRGDTLCHFTIGEKVNYPPRGNGSYRSGEQATVYHYKGCPMIIMPYGNTVYRMKDASTLEPVYELDFGTLHRATGEEVVGGADVDNAYFLSDWVETDSYVFMHVEKGYDCPYARDKKQVTLYSLIYDKRSKAFFSLPQAEKTVHPCPEPDLPDGIPFWPRKGFSEEQLATFTTGWKLSKSSPEVFKRIPALQGTEKETTSLIITLK
MGSDKIHHHHHHGTISHSVEPGDNLYNLAARYMGNPHAWPDIQKLNHISNPHRLKPGTSLLIPKVSSTVTASFVHGEAWLVDDAGNTIKRIAHGDQLNEGDIVRTGQHSYLSLEFADHSVARILSNTHVRLDRIKESGLVPQGQRVIYLEQGNMDVSVTPAPKCNSQHFKVITPQAVAAVRGTRFSVGVGSVSATSVTQGKVEMQPPQPGKSRSGKMLQAGQGIAASGNGLGEVQPLLAAPDLSQLPSMLPEPELLQFDWPAVNGGSEYQYRIAQDEGMEQVLWNAASYSASATLPSLQDGEYLLAVRALDSYGIPGYEAQHRFIIHSHPSSPWLLSPQQGQPIDGNGILRCTPVEGAQGYHLQIATDDEFRELVVDSGPLDRCQYQLASLAEGDYYWRVASVNAEEEGRLGPYSQPASLTVSQDAHTLPIIAGEAYWTSTLQDARYIAQISRSPRFDTLVAEQELDSPRINIQSLPAGRYYVRLATRLENDTGPFSDARIIEVEHEDNGMDRTWFDKPRS
MGSDKIHHHHHHIRSATACSSTDNVVSMKLTEHIGRLTVMGLMLPKHRPFFKERMGMNVQKEGVGEPTMAFTPTQRLHLGAEAEVWKGEWFGKAAVRKQRRPRSWRHPNLDHRLGVRRMISEARLLIRTRKAGLSVPSVWDLDYEGGQLIIEHLEGRPLIDVLNDPATEKEVAKTTLHRVGHSVRRLHREATTHGDLSSNNILIEGEHVHLIDFGLASIEYDVERFGIDLHVLDEILGASHPQWEGAIDWVIEGYLSAEEELGPAPALQGGSVPSAKEVHTRLEDIRTRVRYH
MGSDKIHHHHHHISYPLPPEGSRLVGSAFTIAVPDNNTQPLESFAAQYGQGLSNMLEANPGVDVYLPRSGSTLTIPQQLILPDTVREGIVINVAEMRLYYYPPLGNSVEVLPIGIGQAGRETPRNWVTAVERKQEGPTWVPTANTRREYAKEGKTLPAMVPPGPDNPMGLYAIYIGRLYAIHGTNANFGIGLRVSQGCIRLRNDDIKFLFDNVPVGTRVQLIDQPVKYSVEPDGSHWLEVHEPLSRNRAEFESDRKVPLPMTSALRDFTQGPGVSPAQVEQTLQRRSGMPVNISATAAQGSL
MGSDKIHHHHHHKAFPLRTVFSEGIYYVCAEDLAPAGVGYIHSNGYHYIVYDNHVLFIKEHETIFDFVEKLSPPLFVDGLLFVPIDALKKVMEGYQMYTKGEKVLIYDSLPIVLSAAKEKNGVTITYTGTIVPDMVSVEKSMGRVRINLSPVVVSLPNVSEDIKVELEKNGLSFIVDVGNFYPDVEYSIGDGKLLFRFLLVEGFFGRLEVADGVVFERKIEEFDEGEKTVVNYLIMDPEKVTIKPVVSENGFGTIERLDEMVKRVGGIAGINGNYFDPVTKFPIGLVVIDGKPYSAMFSGRPVFAITEDNEVFIGRVIVDVTLMVKDVLFLVKGINTLGEGEVLVYTKEFSKEIPKKDDKIYFVVKDSKVSQIGYKSHAEDSEYVVSISKKYEEYLSDLKEGDEVYISLQPNIPLRIKQAVEGGPLLIQNGAPIPDAWEEKARYGGGIAYAKAPRTVIATKDGKLWFLVFEGYNHITRGLTYDELVDFLVSRGFEDAMCVDGGSSSVMAVAGSLFGRTENSTAAIPVGIVVWEKKKTEVGK
MGSDKIHHHHHHKDDADAPLRFYDSKYEVPMGGRRYLGIESGNGDYSLEIGNPRIASAGIESGWSGVPAGRMIYISGILTGSTYLKVTDNATQETLTLPIKVVDYYEDLNLIHGSSSLRPNGDENLLPGVDDIFLVSNAARDAYFFKQGQRTAFSSGLELITKGTYALKQEDENKATLTLTFSLDASPATEHHFTVWGNTYLLHRLDKNLHLNWGTPPIGETRTSPAPPPAYTLEEITEGAEPGTGRQVGFILNYKEIPTGILP
MGSDKIHHHHHHKHIVIMMTFKQDILPIIEALCSEGYHVTVIGKKIYQKDINNINHAYFIPAGNKYIMRHMKVLSKAKIIILDTYYLMMGGYQKKKGQTVIQTWHAAGALKNFGLTDHQVDLKNKAMVRQYKKVYDATDYYLVGGEKMAQCFIQSFDASPSQMLKFGLPRLTQYFRSNLKLEQQRLKKKYHITNKLAVYVPTYREGQVAQRTIDKENFERHLPNYTLLSHLHPSTVDCQTSHSIDVTSLLIMADIIISDYSSLPIEASALNKPTLIYNYDEQQYEKVRGLNEFYYAIPERYKMSNEESIIQAIQDNDEQFQSLFNDWHQYNSKDSLNQLVHFINKLVK
MGSDKIHHHHHHKSTDYELKYSYAKKYFNAKQYSKSATLLDELVTIFKGTAYAEESLYLLAQSYYGQKDYQTASQYFETYYTTYPKGEFTELSRFYSGYGLYLDSPDPRLDQSQTYKAIEQLQLYLEYYPQSERAEEAQNIMFELQEKLAYKELMATRLYFNLGTYMGNNFQSCVITAQNALKNYPYSKYREEFMFLIIRAKYELALVSVEEKLQGRYRDVVDEYYNYMNEYPEGNYVKQVTKFYDYASKRITDAY
